Laboratory results: US20210253662A1, “Long-Acting Recombinant GLP1-Fc-CD47 Protein and Preparation and Use Thereof” (ZHEJIANG PALO ALTO PHARMACEUTICALS, INC, priority 2018, published 2021)
Residue numbers refer to the chain shown, from its start.

B1: Gly8-Glu22-Gly36-GLP1(7-37) (peptide)
peptide: HGEGTFTSDVSSYLEEQAAKEFIAWLVKGGG
B2: Gly8-Glu22-Arg34-Leu36-GLP1(7-37) (peptide)
peptide: B1 peptide with K28R, G30L
B3: Gly8-Glu22-Arg34-Ala36-GLP1(7-37) (peptide)
peptide: B1 peptide with K28R, G30A
B4: Gly8-Glu22-Arg34-Gly36-GLP1(7-37) (peptide)
peptide: B1 peptide with K28R
B5: Gly8-Glu22-Arg34-Val36-GLP1(7-37) (peptide)
peptide: B1 peptide with K28R, G30V

What was measured:
[1] = background statement; cited from earlier work
[2] = system: Male C57BL/KsJ mice; test: Intraperitoneal glucose tolerance test (IPGTT) after a single s.c. dose; assay type: in vivo; details: s.c. 30 nmol/kg
Experimental: Male C57BL/KsJ mice of 6 weeks old are randomized into a vehicle control group, a positive drug group and a test protein group according to body weights and blood glucose levels, and are subcutaneously (s.c.) injected with corresponding drugs. An intraperitoneal glucose tolerance test (IPGTT) is performed after dosing for a period of time following the steps as follows: fast the mice for 6 h, collect blood samples from tail veins of the mice in each group before the test, measure the blood glucose levels with a Roche ACCU-CHEK blood glucose meter and record the results at a −60 min time point; measure blood glucose levels again at 0 min in each group before intraperitoneally injecting 2 g/kg glucose (body weight), afterwards measure and record blood glucose levels of mice in each group at 15 min, 30 min, 60 min and 120 min. An IPGTT curve is plotted based on the blood glucose levels to calculate the areas under curve (AUC0-120 min (mM*min)), and the differences are statistically analyzed using the t-test.

[3] = Stability in rat serum in vitro, read as remaining activity in activating hGLP-1R; assay type: in vitro ADME; details: 37° C., activity at 0.03 nM, day 0 as 100%
From the text: The decay rate of protein activity indirectly reflects the stability of the protein in the serum.

[4] = biological target: human GLP-1 receptor (human, UniProt P43220 24-463); test: cell-based or functional assay

Molecule	Activity of Activated hGLP-1R (relative value from EC50, CRE-NanoLuc luciferase reporter in AD293 cells; 100% for GLP1 (7-37)) [4]	also measured
L1: L1 protein (dulaglutide, SEQ ID NO.: 11), GLP-1-Fc fusion protein, positive control, dimer [reference compound]	–	half-life in vivo [1]: 108 to 113 h; Decrease of area under curve (AUC) in blood glucose vs solvent control group ([2]; seven days after a single dose, IPGTT AUC0-120 min): 14.8%; Hypoglycemic activity (AUC) ten days post-dose ([2]; ten days after a single dose, IPGTT): no significant decrease; Decrease in activity after 7 days of incubation in serum [3]: 33.3%
B1	121%	–
B2	113%	–
B3	168%	–
B4	163%	–
B5	142%	–
